Test results published in article PMC4133393.

Target: (his)6CfaB, mature CfaB (residues 24–170) with N-terminal hexahistidine tag (enterotoxigenic E. coli (ETEC)) (UniProt E3PPC4)
Experiment: pull-down

Chain of UniProt E3PPC4 (E3PPC4 24-170): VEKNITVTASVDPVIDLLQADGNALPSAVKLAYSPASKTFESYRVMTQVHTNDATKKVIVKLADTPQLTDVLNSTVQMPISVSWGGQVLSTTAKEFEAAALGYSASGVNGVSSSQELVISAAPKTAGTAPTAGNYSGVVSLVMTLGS

| Substance | CfaA/CfaB ratio |
| --- | --- |
| CfaA (20–238) K9A (natural protein) | 0.64 |
| CfaA (20–238), wild type, untagged (pETDuet-1-cfaA) (natural protein) | 0.66 |
